For four molecules, Kd results are on record in patent publication US20210388110A1 (published 2021).

The experiment concerns the target T1, soluble human CD3ε chain (human, UniProt P07766 23-126, limits assumed).
T1 construct: the text says soluble human CD3ε chain; also called human CD3 epsilon chain
The experiment is described as follows: SPR (Biacore). (In general: SPR reads the build-up and loss of mass on a sensor chip optically.)

T1 sequence (P07766 23-126 limits assumed): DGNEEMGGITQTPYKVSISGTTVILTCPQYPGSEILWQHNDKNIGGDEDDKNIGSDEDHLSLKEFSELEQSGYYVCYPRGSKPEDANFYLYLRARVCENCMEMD

B1: TR01H040-E22Hh/none-Hi-Kn010G3/L0216-k0 (antibody, human IgG1, kappa, L234A L235A, N297A)
heavy: QVQLVESGGGLVQPGRSLRLSCAASGFTFSNAWMHWVRQAPGKGLEWVAQIKDKSQNYATYYAESVKGRFTISRADSKNSIYLQMNSLKTEDTAVYYCRYVHYSASYGVDAWGQGTTVTVSSASTKGPSVFPLAPSSKSTSGGTAALGCLVKDYFPEPVTVSWNSGALTSGVHTFPAVLQSSGLYSLSSVVTVPSSSLGTQTYICNVNHKPSNTKVDKKVEPKSCDKTHTCPPCPAPEAAGGPSVFLFPPKPKDTLMISRTPEVTCVVVDVSHEDPEVKFNWYVDGVEVHNAKTKPREEQYASTYRVVSVLTVLHQDWLNGKEYKCKVSNKALPAPIEKTISKAKGQPREPQVYTLPPSRCELTKNQVSLSCAVKGFYPSDIAVEWESNGQPENNYKTTPPVLDSDGSFFLVSKLTVDKSRWQQGNVFSCSVMHEALHNHYTQKSLSLSPDYKDDDDK
chain: EPKSSDKTHTCPPCPAPELLGGPSVFLFPPKPKDTLMISRTPEVTCVVVDVSHEDPEVKFNWYVDGVEVHNAKTKPREEQYNSTYRVVSVLTVLHQDWLNGKEYKCKVSNKALPAPIEKTISKAKGQPREPQVCTLPPSRDELTKNQVSLWCLVKGFYPSDIAVEWESNGQPENNYKTTPPVLDSDGSFFLYSKLTVDKSRWQQGNVFSCSVMHEALHNRYTQKSLSLSP
light: DIVMTQSPLSLPVTPGEPASISCRSSQPLVHSNRNTYLHWYQQKPGQAPRLLIYKVSNRFRGVPDRFSGSGSGTDFTLKISRVEAEDVGVYYCGQGTQVPYTFGQGTKLEIKRTVAAPSVFIFPPSDEQLKSGTASVVCLLNNFYPREAKVQWKVDNALQSGNSQESVTEQDSKDSTYSLSSTLTLSKADYEKHKVYACEVTHQGLSSPVTKSFNRGEC
notes: single-arm
The Kd is a measure of binding affinity in units of concentration. Low values mean a tighter complex, high ones a looser complex. In turn, B1 came in with a Kd of 25.3 nM.

B2: TR01H040-E22Hh/none-Hi-Kn010G3/L0219-k0 (antibody, human IgG1, kappa, L234A L235A, N297A)
heavy: QVQLVESGGGLVQPGRSLRLSCAASGFTFSNAWMHWVRQAPGKGLEWVAQIKDKSQNYATYYAESVKGRFTISRADSKNSIYLQMNSLKTEDTAVYYCRYVHYSASYGVDAWGQGTTVTVSSASTKGPSVFPLAPSSKSTSGGTAALGCLVKDYFPEPVTVSWNSGALTSGVHTFPAVLQSSGLYSLSSVVTVPSSSLGTQTYICNVNHKPSNTKVDKKVEPKSCDKTHTCPPCPAPEAAGGPSVFLFPPKPKDTLMISRTPEVTCVVVDVSHEDPEVKFNWYVDGVEVHNAKTKPREEQYASTYRVVSVLTVLHQDWLNGKEYKCKVSNKALPAPIEKTISKAKGQPREPQVYTLPPSRCELTKNQVSLSCAVKGFYPSDIAVEWESNGQPENNYKTTPPVLDSDGSFFLVSKLTVDKSRWQQGNVFSCSVMHEALHNHYTQKSLSLSPDYKDDDDK
chain: EPKSSDKTHTCPPCPAPELLGGPSVFLFPPKPKDTLMISRTPEVTCVVVDVSHEDPEVKFNWYVDGVEVHNAKTKPREEQYNSTYRVVSVLTVLHQDWLNGKEYKCKVSNKALPAPIEKTISKAKGQPREPQVCTLPPSRDELTKNQVSLWCLVKGFYPSDIAVEWESNGQPENNYKTTPPVLDSDGSFFLYSKLTVDKSRWQQGNVFSCSVMHEALHNRYTQKSLSLSP
light: DIVMTQSPLSLPVTPGEPASISCRSSQSLVHSNRNTYIHWYQQKPGQAPRLLIYKVSNRFRGVPDRFSGSGSGTDFTLKISRVEAEDVGVYYCGQGTQVPYTFGQGTKLEIKRTVAAPSVFIFPPSDEQLKSGTASVVCLLNNFYPREAKVQWKVDNALQSGNSQESVTEQDSKDSTYSLSSTLTLSKADYEKHKVYACEVTHQGLSSPVTKSFNRGEC
notes: single-arm
B2: the Kd amounted to 39.4 nM.

B3: TR01H040-E22Hh/none-Hi-Kn010G3/L0218-k0 (antibody, human IgG1, kappa, L234A L235A, N297A)
heavy: QVQLVESGGGLVQPGRSLRLSCAASGFTFSNAWMHWVRQAPGKGLEWVAQIKDKSQNYATYYAESVKGRFTISRADSKNSIYLQMNSLKTEDTAVYYCRYVHYSASYGVDAWGQGTTVTVSSASTKGPSVFPLAPSSKSTSGGTAALGCLVKDYFPEPVTVSWNSGALTSGVHTFPAVLQSSGLYSLSSVVTVPSSSLGTQTYICNVNHKPSNTKVDKKVEPKSCDKTHTCPPCPAPEAAGGPSVFLFPPKPKDTLMISRTPEVTCVVVDVSHEDPEVKFNWYVDGVEVHNAKTKPREEQYASTYRVVSVLTVLHQDWLNGKEYKCKVSNKALPAPIEKTISKAKGQPREPQVYTLPPSRCELTKNQVSLSCAVKGFYPSDIAVEWESNGQPENNYKTTPPVLDSDGSFFLVSKLTVDKSRWQQGNVFSCSVMHEALHNHYTQKSLSLSPDYKDDDDK
chain: EPKSSDKTHTCPPCPAPELLGGPSVFLFPPKPKDTLMISRTPEVTCVVVDVSHEDPEVKFNWYVDGVEVHNAKTKPREEQYNSTYRVVSVLTVLHQDWLNGKEYKCKVSNKALPAPIEKTISKAKGQPREPQVCTLPPSRDELTKNQVSLWCLVKGFYPSDIAVEWESNGQPENNYKTTPPVLDSDGSFFLYSKLTVDKSRWQQGNVFSCSVMHEALHNRYTQKSLSLSP
light: DIVMTQSPLSLPVTPGEPASISCRSSQSLVHSNRNTYLHWYQQKPGQAPRLLIYKVSNRFRGVPDRFSGSGSGTDFTLKISRVEAEDVGVYYCYQGTQVPYTFGQGTKLEIKRTVAAPSVFIFPPSDEQLKSGTASVVCLLNNFYPREAKVQWKVDNALQSGNSQESVTEQDSKDSTYSLSSTLTLSKADYEKHKVYACEVTHQGLSSPVTKSFNRGEC
notes: single-arm
Consider B3, for which binding was characterised by a dissociation constant (Kd) of 8.2 nM.

B4: TR01H040-E22Hh/none-Hi-Kn010G3/L0217-k0 (antibody, human IgG1, kappa, L234A L235A, N297A)
heavy: QVQLVESGGGLVQPGRSLRLSCAASGFTFSNAWMHWVRQAPGKGLEWVAQIKDKSQNYATYYAESVKGRFTISRADSKNSIYLQMNSLKTEDTAVYYCRYVHYSASYGVDAWGQGTTVTVSSASTKGPSVFPLAPSSKSTSGGTAALGCLVKDYFPEPVTVSWNSGALTSGVHTFPAVLQSSGLYSLSSVVTVPSSSLGTQTYICNVNHKPSNTKVDKKVEPKSCDKTHTCPPCPAPEAAGGPSVFLFPPKPKDTLMISRTPEVTCVVVDVSHEDPEVKFNWYVDGVEVHNAKTKPREEQYASTYRVVSVLTVLHQDWLNGKEYKCKVSNKALPAPIEKTISKAKGQPREPQVYTLPPSRCELTKNQVSLSCAVKGFYPSDIAVEWESNGQPENNYKTTPPVLDSDGSFFLVSKLTVDKSRWQQGNVFSCSVMHEALHNHYTQKSLSLSPDYKDDDDK
chain: EPKSSDKTHTCPPCPAPELLGGPSVFLFPPKPKDTLMISRTPEVTCVVVDVSHEDPEVKFNWYVDGVEVHNAKTKPREEQYNSTYRVVSVLTVLHQDWLNGKEYKCKVSNKALPAPIEKTISKAKGQPREPQVCTLPPSRDELTKNQVSLWCLVKGFYPSDIAVEWESNGQPENNYKTTPPVLDSDGSFFLYSKLTVDKSRWQQGNVFSCSVMHEALHNRYTQKSLSLSP
light: DIVMTQSPLSLPVTPGEPASISCRPSQSLVHSNRNTYLHWYQQKPGQAPRLLIYKVSNRFRGVPDRFSGSGSGTDFTLKISRVEAEDVGVYYCGQGTQVPYTFGQGTKLEIKRTVAAPSVFIFPPSDEQLKSGTASVVCLLNNFYPREAKVQWKVDNALQSGNSQESVTEQDSKDSTYSLSSTLTLSKADYEKHKVYACEVTHQGLSSPVTKSFNRGEC
notes: single-arm
The molecule B4 registered a Kd of 20.7 nM. Against the preceding molecule, the Kd is about 2.5-fold higher.
